Source: US7291332B2, “Inflammatory mediator antagonists” (SmithKline Beecham Corporation, priority 1998, dated 2007)

What was measured:
Bovine nasal cartilage = test: Cartilage degradation assay (hydroxyproline/collagen release, MMP1)
THP-1 cells = test: OSM-induced TNFα production by PMA-differentiated THP-1 cells (ELISA, RT-PCR); assay type: cell-based, human
Experimental: Human pro-monocytic line THP-1 cells (ECACC) were passaged twice weekly in RPMI supplemented with 10% heat-inactivated FCS, 10 mM hepes, 1% non-essential amino acids (all from Sigma), 4 mM L-glutamine (Hyclone), 100 U/ml penicillin+100 μg/ml streptomycin (Hyclone) (complete medium, CM) and then PMA (Sigma) was added to washed cells at 1 ug/ml and Incubated at 37° C. for 30 minutes. Cells were washed ×3 in pre-warmed PBS, resuspended in CM and plated out at 1.5×10^5 cells/ml in 96-well flat bottomed plates (Costar). Plates were incubated for 48 hours at 37° C., 5% CO2, then washed with PBS, the media replaced, and incubated for a further 24 hours. Cells were washed ×1 in PBS before use.
(§1) Lyophilised, recombinant human oncostatin M (rhOSM) was purchased from R&D Systems diluted to 10 μg/ml in sterile PBS+0.1% BSA (Sigma) and aliquots stored at −20° C. until use. rhOSM, E. coli-derived LPS or CM were added to triplicate wells of macrophages, monocytes or Thp-1 cells, prepared as above and incubated for 7 hours at 37° C., 5% CO2. Supernatants were harvested and frozen at −20° C. until testing for TNFα protein by ELISA. In assays designed to co-assay for TNFα mRNA, cells were incubated as above for 4 hrs, washed once in PBS and lysed in RNA extraction buffer (RNAzole).
RNA was detected as follows. Total RNA was prepared according to the manufacturer's instructions and stored at −80° C. in DEPC-treated water. For RT-PCR, approximately 1 ug of RNA was reverse transcribed using oligo dT priming (first strand cDNA synthesis kit, Pharmacia Biotech) and the resulting cDNA subjected to 30 cycles of PCR using the following primers for TNFα (Clontech amplimers): forward—[…], (SEQ ID 1) reverse-[…] CCAGAC (SEQ ID 2). The amplified product (444 bp) was separated by agarose gel (2%) electrophoresis and visualized by ethidium bromide staining.
The human pro-monocytic line THP-1, was induced to differentiate using PMA, washed thoroughly, and incubated with recombinant human OSM as described above. Culture supernatants were removed at 8 hours and assayed for TNFα production by specific ELISA (TNF Quantikine, R&D Systems) in accordance with manufacturers instructions. OSM induced a dose-related release of TNFα, measurable above 1 ng/ml OSM and maximal at 200-500 ng/ml, routinely reaching secreted levels of greater than 2500 pg/ml TNFα.

human blood monocytes = test: OSM-induced TNFα secretion by interferon-γ pre-activated blood monocytes (ELISA); assay type: cell-based; conditions: co-incubated 8 hr with OSM, n=4 donors
Experimental: Human buffy coats (North London Blood Transfusion Centre) were diluted 1:3 with PBS, layered onto Lymphoprep (Nycomed UK) and centrifuged at 600×g for 30 minutes at room temperature. Harvested PBMC were washed 3 times in PBS, counted, and resuspended in 80 mls RPMI 1640/10% FCS at 5×10^6 cells/ml. 20 mls were put into each of four 175 cm^2 flasks and Incubated overnight at 37° C. to allow monocytes to adhere. Non-adherent cells were discarded and adherent cells scraped off after incubation with ice-cold versene at 4° C. for 15 minutes. Cells were washed twice in PBS, resuspended in RPMI 1640+10% heat inactivated human serum (Sigma) at 6.9×10^5/ml and 250 ul cell suspension placed into each well of 96-well flat bottomed plate (Costar). To half the plate was added 100 IU/ml IFNγ (Genzyme), the other half left as control. Plates were incubated overnight at 37° C., 5% CO2 prior to assay. […]
Importantly, TNFα induction was not due to contaminating endotoxin as pre-boiling of OSM completely ablated TNFα secretion (data not shown). […] Both cell types, when co-incubated for 8 hr with OSM, secreted TNFα, as measured by ELISA. […]

human blood macrophages = test: OSM-induced TNFα secretion by blood macrophages (ELISA); assay type: cell-based; conditions: co-incubated 8 hr with OSM, n=3 donors
Experimental: as §1
Importantly, TNFα induction was not due to contaminating endotoxin as pre-boiling of OSM completely ablated TNFα secretion (data not shown). Also, removal of OSM by immunoprecipitation using specific antibody abolished activity (data not shown). These findings were extended to include human blood monocytes, pre-activated with interferon-γ and human blood macrophages, differentiated in culture for 7 days. Both cell types, when co-incubated for 8 hr with OSM, secreted TNFα, as measured by ELISA. Mean TNFα secretion by monocytes was 1447 pg/ml (range 137-4709 pg/ml; n=4 donors) and 542 pg/ml by macrophages (range 62-1428 pg/ml; n=3 donors).

B1: OSM: recombinant human oncostatin M purchased from R&D Systems (protein)
chain: AAIGSCSKEYRVLLGQLQKQTDLMQDTSRLLDPYIRIQGLDVPKLREHCRERPGAFPSEETLRGLGRRGFLQTLNATLGCVLHRLADLEQRLPKAQDLERSGLNIEDLEKLQMARPNILGLRNNIYCMAQLLDNSDTAEPTKAGRGASQPPTPTPASDAFQRKLEGCRFLHGYHRFMHSVGRVFSKWGESPNRSRRHSPHQALRKGVRRTRPSRKGKRLMTRGQLPR
collagen release (Bovine nasal cartilage; OSM alone at 10 ng/ml, day 14): did not induce collagen release
MMP1 secretion (total collagenase activity) (Bovine nasal cartilage; day 7, OSM 10 ng/ml, TNFα 50 ng/ml): neither OSM nor TNFα alone, used at 10 ng/ml or 50 ng/ml, respectively, induced significant MMP1 secretion
Expression of TNFα message (RT-PCR) (THP-1 cells; 4 hr with 100 ng/ml OSM, relative to unstimulated control cells): strongly increased
OSM concentration above which TNFα release is measurable (THP-1 cells; 8 hours): above 1 ng/ml
OSM concentration at which TNFα release is maximal (THP-1 cells; 8 hours): 200 to 500 ng/mL
secreted levels of TNFα (THP-1 cells; PMA-differentiated THP-1, supernatants at 8 hours, at maximal OSM): greater than 2500 pg/ml
Mean TNFα secretion by monocytes (human blood monocytes): 1447 pg/mL
Mean TNFα secretion by macrophages (human blood macrophages): 542 pg/mL
